From the nanobody polyreactivity screen of Harvey et al. (2022)

Test: yeast display, Sf9 membrane polyspecificity reagent, FACS + sequencing; frameworks hold sequencing errors
Procedure, shortened: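 Galactose-induced (36–48 hours) yeast carrying a synthetic nanobody display library were exposed to 10% biotinylated, detergent-solubilized Sf9 membrane reagent at 4 °C for 1 hour. FACS followed streptavidin microbead enrichment, using low and high (top ~1%) gates for expression (anti-HA) and reagent binding (streptavidin). Colony PCR, MiSeq 2 × 250 sequencing and CDR-length filtering followed. Labels for polyreactivity reflect the gate of origin.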

QVQLVESGGGLVQAGGSLRLSCAASGITFTGYAMGWYRQAPGKERELVAAITSGGGRTYYADSVKGRFTISRDNAKNTVYLQMNSLKPEDTAVYYCAFRYHGYDYWGQGTQVTVSS
polyreactivity (PSR sort gate): high polyreactivity

QVQLVESGGGLVQAGGSLRLSCAASGITFTPNAMGWYRPAPGKEREFVAAITYSGGSTYYADSVKGRFTISRDNAKNTVYLQMNSLKPEDTAVYYCAAVYYLLYYEAYYYWGQGTQVTVSS
polyreactivity (PSR sort gate): low polyreactivity

QVQLVESGGGLVQAGGSLRLSCAASGITFTPYALGWSRPAPGKERELVAAISASGGNTYYADSVKGRFTISRDNAKNTVYLQMNSLKPDDTAVYYCAAVVAFATGTYYYWGQGTQVTVSS
polyreactivity (PSR sort gate): high polyreactivity

QVQLVESGGGLVQAGGSLRLSCAASGITFTRNVMGWYRQAPGKERELVAAISGSGGSTYYADSVKGRFTISRDNAKNTVYLQMNSLKPEDTAVYYCAARSRGGRRYDYWGQGTQVTVSS
polyreactivity (PSR sort gate): high polyreactivity

QVQLVESGGGLVQAGGSLRLSCAASGITFTRYAMGWYRQAPGKEMEFVAAIRRSGGNTYYADSVKGRFTISRDNAKNTVYLQMNSLKPEDTAVYYCAASFRKTSPTRLVDYWGQGTQVTVSS
polyreactivity (PSR sort gate): low polyreactivity

QVQLVESGGGLVQAGGSLRLSCAASGITFTSYAMGWYRQAPGKERELVAAISSSGVRTYYADSVKGRFTISRDNAKNTVYLQMNSLKPEDTAVYYCATRRRVLNCYDYWGQGTQVTVSS
polyreactivity (PSR sort gate): high polyreactivity

QVQLVESGGGLVQAGGSLRLSCAASGITFTYYVMGWYRQAPGKERELVAAITWRGGRTRYADSVKGRFTISRDNAKNTVYLQMNSLKPEDTAVYYCAADLHQRRYYYWGQGTQVTVSS
polyreactivity (PSR sort gate): high polyreactivity

QVQLVESGGGLVQAGGSLRLSCAASGITFVANAMGWYRQAPGKERELVAGITQTGGSTYYADSVKGRFTISRDNAKNTVYLQMNSLKPEDTAVYYCAATYRRLRYGKLLYYWGQGTQVTVSS
polyreactivity (PSR sort gate): high polyreactivity

QVQLVESGGGLVQAGGSLRLSCAASGITFVDYAMGWYRQAPGKERELVAAITTGGSTNYADSVKGRFTISRDNAKNTVYLQMNSLKPEDTAVYYCNKRPVILYDYWGQGTQVTVSS
polyreactivity (PSR sort gate): low polyreactivity

QVQLVESGGGLVQAGGSLRLSCAASGITFVFNAMGWYRQAPGKERELVASITIGGNTYYADSVKGRFTISRDNAKNTVYLQMNSLKPEDSAVYYCAADIARSVRFYYWGQGTQVTVSS
polyreactivity (PSR sort gate): low polyreactivity

QVQLVESGGGLVQAGGSLRLSCAASGITFVFYAMGRYRPAPGKERELVAAISSSGGSTYYADSVKGRFTISRDNAKNTVYLQMNSLKAEDTAVYYCNAKVFSYQGAVRYDYWGQGTQVTVSS
polyreactivity (PSR sort gate): high polyreactivity

QVQLVESGGGLVQAGGSLRLSCAASGITFVFYTMGWYRQAPGKERELVAAISRSGASTYYADSVKGRFTISRDNAKNTVYLQMNSLKPEDTAVYYCAADRGYRFRMDYWGQGTQVTVSS
polyreactivity (PSR sort gate): high polyreactivity

QVQLVESGGGLVQAGGSLRLSCAASGITFVHYAMGWYRQAPGKEREFVAAITKGGGSTSYADSVKGRFTISRDNAKNTVYLQMNSLKPEDTAVYYCAATYYAYGFSISYYYWGQGTQVTVSS
polyreactivity (PSR sort gate): high polyreactivity

QVQLVESGGGLVQAGGSLRLSCAASGITFVHYAMGWYRQAPGKERELVASITRRGGSTYYADSVKGRFTISRDNAKNTVYLQMHSLKPEDTAVYYCAARWSAWSGYIFDYWGQGTQVTVSS
polyreactivity (PSR sort gate): high polyreactivity

QVQLVESGGGLVQAGGSLRLSCAASGITFVNNAMGWYRQAPGKEREFVAAISWSGGNTYYADSVKGRFTISRDNAKNTVYLQMISLKPEDTAVYYCSGYISRSRFRFYYWGQGTQVTVSS
polyreactivity (PSR sort gate): low polyreactivity

QVQLVESGGGLVQAGGSLRLSCAASGITFVNYAMGWYRQAPGKERELVAAITSGGNTYYADSVKGRFTISRDNAKNTVYLQMNSLKPEDTAVYYCAAKWFYGKPYRGYYYWGQGTQVTVSS
polyreactivity (PSR sort gate): high polyreactivity

QVQLVESGGGLVQAGGSLRLSCAASGITFVRYAKGWYRHAPGKEREFVARISRSGASTYYADSVKGRFTISRDNAKNTVYLQMNSLKPEDTAVYYCNAVPGGSRFDYWGQGTQVTVSS
polyreactivity (PSR sort gate): high polyreactivity

QVQLVESGGGLVQAGGSLRLSCAASGITFVRYAMGWYRQAPGKERELVAVISRGGITNYADSVKGRFTISRDNAKNTVYLQMNSMKPEDTAVYYCAVRGRSYVRTYDYWGQGTQVTVSS
polyreactivity (PSR sort gate): high polyreactivity

QVQLVESGGGLVQAGGSLRLSCAASGITFVSNVMGWYRQAPGKEREFVAAINVSGDSTTYADSVKGRFTISRDNAKNTVYLQRNSLKPEDTAVYYCAAEYNFPEFPWGGEYDYWGQGTQVTVSS
polyreactivity (PSR sort gate): low polyreactivity

QVQLVESGGGLVQAGGSLRLSCAASGITFVYYAMGWYRQAPGKERELVASISSADNTHYADSVKGRFTISRDNAKNTVYLQMNSQKPEDTAVYYCAADYWWNLRHYSTGGYWGQGTQVTVSS
polyreactivity (PSR sort gate): low polyreactivity

QVQLVESGGGLVQAGGSLRLSCAASGITFWDYAMGWYRQAPGTERELVAANSRSGGSTYYADSVKGRFTISRDNAKKTVYLQMNSLKPEDTAVYFCAAYTRRPIYDYWGQGTQVTVSS
polyreactivity (PSR sort gate): high polyreactivity

QVQLVESGGGLVQAGGSLRLSCAASGITFWGYAMGWYRQAPGKEREFVARINWSGGRTYYAESVKGRFTISRDNAKKTVYLQMNSLKPEDTAVYYCAATSRIYGYRTYDDWGQGTQVTVSS
polyreactivity (PSR sort gate): high polyreactivity

QVQLVESGGGLVQAGGSLRLSCAASGITFWKYTMGWYRQAPGKERELVAAITGRGGSTYYADSVKGRFTISRDNAMNTVYLQMNRLKPEDTAVYYCAAELRPGYRSSYGLIYDYWGQGTQVTVSS
polyreactivity (PSR sort gate): low polyreactivity

QVQLVESGGGLVQAGGSLRLSCAASGITFWNNAMGWYRQAPGKERELVATISSNGGRTYYADSVKGRFTISRDNAKNTVYLQMNSLKPEDTAVYYCNAARRAYGYNYWGQGTQVTVSS
polyreactivity (PSR sort gate): low polyreactivity

QVQLVESGGGLVQAGGSLRLSCAASGITFWNYAMGWYRQAPGKERELVARISRGGSTNYADSVKGRFTISRDNAKNTVYLQMNSLKPEDNAVYYCAARWYSSTQTGNYWGQGTQVTVSS
polyreactivity (PSR sort gate): high polyreactivity

QVQLVESGGGLVQAGGSLRLSCAASGITFWSNAMGWYRQAPGKERELVAAITSSGGSTYYADSVKGRFTISRDNAKNNVYLQMNSLKPEDTAVYYCAAPISRSAGWDSYDYWGQGTQVTVSS
polyreactivity (PSR sort gate): low polyreactivity

QVQLVESGGGLVQAGGSLRLSCAASGITFWTYAMGWYIQAPGKERELVAAISNGGSTSYADSVKGRFTISRDNAKNTVYLQMNSLKPEDTAVYYCAADWATHRPWYWWVYYWGQGTQVTVSS
polyreactivity (PSR sort gate): low polyreactivity

QVQLVESGGGLVQAGGSLRLSCAASGITFWYYAMGWYRQAPGKERELVAVISRGGSTYYADSVKGRFTISRDNAKNTVYLQMNSLKPEDTAVYYCAARPRWYTYTRQEYDYWGQGTQVTVSS
polyreactivity (PSR sort gate): high polyreactivity

QVQLVESGGGLVQAGGSLRLSCAASGITFYDYAMGWYRQAPGKERELVAAINSSGVRTYYADSVKGRFTISRDNAKNTVYLQMNSLKPEVTAVYYCAAVRRGPYISRSDMDYYWGQGTQVTVSS
polyreactivity (PSR sort gate): high polyreactivity

QVQLVESGGGLVQAGGSLRLSCAASGITFYDYAMGWYRQAPGKERELVAAISFSGSRTYYADSVKGRFTISRDIAKNTVYLQMNSLKPEDTAVYYCAASQARNYKIYDYWGQGTQVTVSS
polyreactivity (PSR sort gate): high polyreactivity

QVQLVESGGGLVQAGGSLRLSCAASGITFYDYTMGWYRQAPGKERELVAAISSRGGSTYYADSVKGRFTISRDNAKNTVYLQMNSLKPEDTAVYYCNADYIYSFYWSFYEYDYWGQGTQVTVSS
polyreactivity (PSR sort gate): high polyreactivity

QVQLVESGGGLVQAGGSLRLSCAASGITFYEYDMGWYRQAPGKERELVAAITSRGGSTYYADSVKGRFTISRDNAKNTVYLQMNSLKPEDTAVYYCNAVRGWLYVFSYPYWDDEYWGQGTQVTVSS
polyreactivity (PSR sort gate): high polyreactivity

QVQLVESGGGLVQAGGSLRLSCAASGITFYGNAMGWYRQAPGKERELVAAINWGGTGTYYADSVKGRFTISRDNAKNTVYLQMNSLKPEDTAVYYCAAEVYTWGQGTQVTVSS
polyreactivity (PSR sort gate): low polyreactivity

QVQLVESGGGLVQAGGSLRLSCAASGITFYGYAMGWYRQAPGKERELVASISYGGGSTYYADSVKGRFTISRDNAKNTVYFQLNSLKPEDTAVYYCAAQAATYYSGYYYWGQGTQVTVSS
polyreactivity (PSR sort gate): high polyreactivity

QVQLVESGGGLVQAGGSLRLSCAASGITFYGYTMGWYRQAPGKERELVATITRGGSTYYADSVKGRFTISRDNAKNSVYLQMNSLKPEDTAVYYCAADLKGNYYLGIARYVLYYWGQGTQVTVSS
polyreactivity (PSR sort gate): low polyreactivity

QVQLVESGGGLVQAGGSLRLSCAASGITFYIKAMGWYRQAPGKERELVAVIDSRGSSTFYADSVKGRFTISRDNAKNTVYLQMNSLKPEDTAVYYCAVEGYPGRYRDPGDLYYYWGQGTQVTLSS
polyreactivity (PSR sort gate): low polyreactivity

QVQLVESGGGLVQAGGSLRLSCAASGITFYINAMGWYRQAPAKERELVAVIDSRGSSTFYADSVKGRFTISRDNAKNTVYLLMNSLKPEDTAVYYCAVEGYPGRYRDPGDLYYYWGQGTQVTLSS
polyreactivity (PSR sort gate): low polyreactivity

QVQLVESGGGLVQAGGSLRLSCAASGITFYKYAMGWYRQAPGKERELVASISNGGNTNYADSVKGRFTISSDNAKNTVYLQMNSLKPEDTAVYYCAAGRQWYSYYRNDYWGQGTQVTVSS
polyreactivity (PSR sort gate): high polyreactivity

QVQLVESGGGLVQAGGSLRLSCAASGITFYKYVMGWYRQAPGKEREFVAAITWSGDSTYADSVKGRFTISRDNAKNTVYLQMNSLKPEDTAVYYCAARTWSRRQREYDYWGQGTQVTVSS
polyreactivity (PSR sort gate): high polyreactivity

QVQLVESGGGLVQAGGSLRLSCAASGITFYLNAMGWYRQAPGKDRELVADITVSGGSTYYADSVKGRFTISRDNAKNTVYLQMNSLKPEDTAVYYCAADLTISYSQEYYYWGQGTQVTLSS
polyreactivity (PSR sort gate): low polyreactivity

QVQLVESGGGLVQAGGSLRLSCAASGITFYLYTMGWYRQAPGKERELVAAISWRGGGTYYADSVKGRFTISRDNAKNTVYLQMNSLKPEDTAVYYCATVRTYARNDYWGQGTQVTVSS
polyreactivity (PSR sort gate): high polyreactivity

QVQLVESGGGLVQAGGSLRLSCAASGITFYPNGMGWYRQAPGKEREFVAAISSSGGSTYYADSVKGRFTISRDNAKNSVYLQMNSLKPEDTAVYYCAAQYYAMSYYGYGYWGQGTQVTVSS
polyreactivity (PSR sort gate): low polyreactivity

QVQLVESGGGLVQAGGSLRLSCAASGITFYRNAMGWYRQAPGKERELVATITRGGSTYYADSVKGRFTISRDNAKNTVYLQMNSLKPEDTAVYYCNRAGGYRTTFYSWGQGTQVTVSS
polyreactivity (PSR sort gate): high polyreactivity
